Results taken from US20220411517A1 (LEO PHARMA A S, published 2022).

Columns and labels:
human IL-1RAcP on cells [1] = target: T1, human IL-1RAcP on cells (human, UniProt Q9NPH3 21-570); assay: cell-based or functional assay
[2] = target: T2, cynomolgus IL-1RAcP on cells (cynomolgus, UniProt A0A2K5X5J5 21-570); assay: cell-based or functional assay
[3] = target: T3, mouse (AG-12212) IL-1RAcP (mouse, UniProt Q61730 21-367, limits assumed); assay: ELISA, Fc-capture mode of the IgGs (FIG. 1-3)
T3 construct: Recombinant tagged antigen; also called recombinant mouse IL-1RAcP; mouse IL-1RAP
Description: Bound antibodies were detected using respective alkaline-phosphatase (AP) coupled secondary antibodies in combination with ‘AttoPhos’ fluorescence substrate. Multiple washing steps have been performed in between individual assay steps.

human IL-1RAcP on cells [4] = target: T1, human IL-1RAcP on cells; assay: flow cytometry on primary human dermal fibroblasts expressing endogenous IL-1RAcP (FIG. 4-1)
Protocol: Cell suspensions were transferred into microtiter plates and antibody samples were added followed by subsequent incubation of plates at 4° C. for 3 hours. Following incubation, cells were washed several time with FACS buffer.

[5] = target: T4, human IL1RAcP domain 3 (AG-12127) (human); assay: ELISA on directly coated human IL-1RAcP domain 3 (AG-12127), IgG titrated, S/BG
T4 construct: also called domain 3 of human IL-1RAcP
T4 chain: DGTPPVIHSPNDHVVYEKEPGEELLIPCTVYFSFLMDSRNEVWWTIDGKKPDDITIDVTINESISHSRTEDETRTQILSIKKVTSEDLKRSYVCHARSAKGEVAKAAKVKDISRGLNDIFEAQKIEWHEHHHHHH

recombinant rat IL-1RAcP = recombinant rat IL-1RAcP (rat, UniProt Q63621 21-367, limits assumed); assay: ELISA (FIG. 1-3 cited)
[6] = target: T5, hIL-1RAP(1-367)_F-chLys_Avi (human, biotinylated (Avi tag) in SPR and ELISA binning; unlabeled in SET); assay: SET, ratio of KD values
T5 construct: also called human IL-1RAcP (AG-12210)

[7] = target: T6, cyIL-1RAP(1-367)_F-chLys_Avi (cynomolgus, biotinylated (Avi tag) in SPR; unlabeled in SET); assay: SET, ratio of KD values
T6 construct: cynomolgus IL-1RAcP (21-367) is UniProt A0A2K5X5J5; also called cynomolgus IL-1RAcP (AG-12211)

human IL-1RAcP on cells [8] = target: T1, human IL-1RAcP on cells; assay: cell-based or functional assay; remark: listed apart in the source
[9] = target: T2, cynomolgus IL-1RAcP on cells; assay: cell-based or functional assay; remark: listed apart in the source
[10] = target: T6, cyIL-1RAP(1-367)_F-chLys_Avi; assay: solution equilibrium titration (SET), ECL read-out, IgG
Protocol: (§1) MSD SulfoTAG™ NHS-Ester (Meso Scale Diagnostics) according to the manufacturer's instructions. […] Serial dilutions of unlabeled antigen were prepared, starting with a concentration at least 10 times higher than the expected KD. Wells without antigen were used to determine Bₘₐₓ values;
(§2) wells containing only assay buffer were used to determine background. […] MSD plates were coated with antigen on standard plates (30 μL per well). After washing the plate with PBS with 0.05% Tween 20, the equilibrated samples were transferred to the plates and incubated for 20 min. […] After washing the MSD plate and adding 30 μL/well MSD Read Buffer T with surfactant, electrochemiluminescence signals were detected using a MESO SECTOR S 600 (Meso Scale Diagnostics).
(§3) The data was evaluated with XLfit (IDBS) software applying customized fitting models.

[11] = target: T5, hIL-1RAP(1-367)_F-chLys_Avi; assay: as above
Protocol: as §1, §2, §3

[12] = target: T7, human IL1RAcP domain 1 (AG-12335) (human); assay: ELISA on directly coated human IL-1RAcP domain 1 (AG-12335), IgG titrated, S/BG
T7 construct: also called domain 1 of human IL-1RAcP
T7 chain: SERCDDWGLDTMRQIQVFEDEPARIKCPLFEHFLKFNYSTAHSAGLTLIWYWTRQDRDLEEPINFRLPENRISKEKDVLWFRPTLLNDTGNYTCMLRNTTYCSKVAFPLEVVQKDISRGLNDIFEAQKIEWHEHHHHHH
Protocol: All were assessed with direct coating of the antigen. […] An anti-His antibody served as positive control.

[13] = target: T8, human IL1RAcP domain 1/2 (AG-12337) (human); assay: ELISA on directly coated human IL-1RAcP domain 1/2 (AG-12337), IgG1f_AEASS titrated, S/BG
T8 construct: also called domain 1/2 of human IL-1RAcP

IC50, IFNγ release, PBMC stimulated with IL-1β (human IL-1RAcP on cells [1]): 1.7 nM
IC50, IFNγ release, PBMC stimulated with IL-33 (human IL-1RAcP on cells [1]): 0.2 nM
IC50, IL-8 release, HDFa stimulated with IL-1α (human IL-1RAcP on cells [1]): 1.1 nM
IC50, IL-8 release, HDFa stimulated with IL-36α (human IL-1RAcP on cells [1]): 0.039 nM
IC50, IL-8 release, HDFa stimulated with IL-36β (human IL-1RAcP on cells [1]): 0.06 nM
IC50, IL-8 release, HDFa stimulated with IL-36γ (human IL-1RAcP on cells [1]): 0.026 nM
IC50, IL-8 release, HEKa stimulated with IL-1β (human IL-1RAcP on cells [1]): 31 nM
IC50, IL-8 release, HEKa stimulated with IL-36β (human IL-1RAcP on cells [1]): 0.094 nM
IC50, IL-8 release, CyDFa stimulated with cynomolgus IL-1β [2]: 0.032 nM
binding result [3]: no binding
EC50 (human IL-1RAcP on cells [4]): 1.48 nM
binding result [5]: no binding (tested: 2e-7 M)
binding result (recombinant rat IL-1RAcP): no binding
fold stronger KD than reference R001031 (CAN04) [6]: ~7 fold
fold stronger KD than reference R001032 (1A05) [6]: ~3.5 fold
fold stronger KD than reference R001031 (CAN04) [7]: ~16 fold
fold stronger KD than reference R001032 (1A05) [7]: ~15 fold
IC50, IL-6 release, human whole blood stimulated with 1 ng/ml rhIL-1β (human IL-1RAcP on cells [8]): ~10 nM
IC50, IL-6 release, human whole blood stimulated with 5 ng/ml rhIL-1β (human IL-1RAcP on cells [8]): ~8 nM
IC50, IL-6 release, human whole blood stimulated with 10 ng/ml rhIL-1β (human IL-1RAcP on cells [8]): ~20 nM
IC50, IFN-γ release, cynomolgus whole blood stimulated with 300 ng/ml rcIL-33 [9]: ~15 nM
IC50, IL-6 release, cynomolgus whole blood stimulated with 50 ng/ml rcIL-1β [9]: ~50 nM
IC50, IL-6 release, cynomolgus whole blood stimulated with IL-1β [9]: ~70 nM
Kd [10]: 0.001 nM
Kd [11]: 0.003 nM
binding result [12]: no binding (tested: 2e-7 M)
EC50 (read off the curve) [13]: ~5 nM
B1: Y024149_h_IgG1f_AEASS (antibody, V domains shown)
VH: EVQLVESGGGLVQPGGSLRLSCAASGGTFGGSAMHWVRQAPGKGLVWVSRILTYGGIATYAESVKGRFTISRDNAKNTLYLQMNSLRAEDTAVYYCARGSSEYPKFDIWGQGTLVTVSS
VL: DIQMTQSPSTLSASVGDRVTITCRASQSISSWLAWYQQKPGKAPKLLIYDASSLESGVPSRFSGSGSGTEFTLTISSLQPEDFATYYCHQLLIYPHTFGQGTKVEIKR
notes: Human IgG1f with AEASS effector-silencing residues, kappa light chain
